This note sets out measurements from patent US20100061996.

For this data set, the target named is pro-uPA (pro-urokinase-type plasminogen activator, single-chain zymogen form of uPA), P00749.

B1: Lys-plasmin (protein)
chain: KVYLSECKTGNGKNYRGTMSKTKNGITCQKWSSTSPHRPRFSPATHPSEGLEENYCRNPDNDPQGPWCYTTDPEKRYDYCDILECEEECMHCSGENYDGKISKTMSGLECQAWDSQSPHAHGYIPSKFPNKNLKKNYCRNPDRELRPWCFTTDPNKRWELCDIPRCTTPPPSSGPTYQCLKGTGENYRGNVAVTVSGHTCQHWSAQTPHTHNRTPENFPCKNLDENYCRNPDGKRAPWCHTTNSQVRWEYCKIPSCDSSPVSTEQLAPTAPPELTPVVQDCYHGDGQSYRGTSSTTTTGKKCQSWSSMTPHRHQKTPENYPNAGLTMNYCRNPDADKGPWCFTTDPSVRWEYCNLKKCSGTEASVVAPPPVVLLPDVETPSEEDCMFGNGKGYRGKRATTVTGTPCQDWAAQEPHRHSIFTPETNPRAGLEKNYCRNPDGDVGGPWCYTTNPRKLYDYCDVPQCAAPSFDCGKPQVEPKKCPGRVVGGCVAHPHSWPWQVSLRTRFGMHFCGGTLISPEWVLTAAHCLEKSPRPSSYKVILGAHQEVNLEPHVQEIEVSRLFLEPTRKDIALLKLSSPAVITDKVIPACLPSPNYVVADRTECFITGWGETQGTFGAGLLKEAQLPVIENKVCNRYEFLNGRVQSTELCAGHLAGGTDSCQGDSGGPLVCFEKDKYILQGVTSWGLGCARPNKPGVYVRVSRFVTWIEGVMRNN
With B1, the “cleavage of pro-uPA (SDS-PAGE, 1.5 uM pro-uPA, 15 nM plasmin)” value is “cleavage of pro-uPA by plasmin generated identical fragments and with a time-course similar to hepsin”; the k (first-order rate constant of pro-uPA activation) worked out at 0.0815 min⁻¹; the kcat/Km of pro-uPA activation worked out at 453000 M⁻¹ s⁻¹.

B2: matriptase protease domain (protein)
chain: VVGGTDADEGEWPWQVSLHALGQGHICGASLISPNWLVSAAHCYIDDRGFRYSDPTQWTAFLGLHDQSQRSAPGVQERRLKRIISHPFFNDFTFDYDIALLELEKPAEYSSMVRPICLPDASHVFPAGKAIWVTGWGHTQYGGTGALILQKGEIRVINQTTCENLLPQQITPRMMCVGFLSGGVDSCQGDSGGPLSSVEADGRIFQAGVVSWGDGCAQRNKPGVYTRLPLFRDWIKENTGV
Turning to B2, the k (first-order rate constant of pro-uPA activation) is 0.0142 min⁻¹ and the kcat/Km of pro-uPA activation was found to be 79000 M⁻¹ s⁻¹.
